Results from the nanobody polyreactivity screen of Harvey et al. (2022).

Assay: yeast display, Sf9 membrane polyspecificity reagent, FACS + sequencing; frameworks hold sequencing errors
In short: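 Nanobodies from a synthetic yeast display library (Saccharomyces cerevisiae BJ5465), induced 36–48 hours with galactose, were stained 1 hour at 4 °C with 10% biotinylated, detergent-solubilized Sf9 membrane reagent, enriched on streptavidin microbeads, then FACS-sorted. Anti-HA (expression) and streptavidin (reagent binding) fluorescence set low and high (top ~1%) gates. Polyreactivity labels come from the gate of origin. Genes were colony-PCR amplified, MiSeq 2 × 250 sequenced and filtered by CDR length.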

Row | Sequence | polyreactivity (PSR sort gate)
1 | QVQLVESGGGLVQAGGSLRLSCAASGRTFIRNAMGWYRQAPGKERELVAAISGTGGSTYYADSVKGRLTISRDNAKNTVYLQMNSLKPEDTAVYYCAADRPAPGYDYWGQGTQVTVSS | low polyreactivity
2 | QVQLVESGGGLVQAGGSLRLSCAASGRTFIRNVMGWYRQAPGKERELVAAISTRGGSTYYADSVKGRFTISRDIAKNTVYLQMNSMKPEDTAVYYCASVIRCRYSYYEYDYWGQGTQETVSS | high polyreactivity
3 | QVQLVESGGGLVQAGGSLRLSCAASGRTFISYAMGWYRQAPGKERELVAAISGRGGSTYFADSVKGRFTISRDNAKNTVYLQMNSLKQEDTAVYYCAAEWFGVYRRYKYDYWGQGTQVTVSS | low polyreactivity
4 | QVQLVESGGGLVQAGGSLRLSCAASGRTFIVYAMGWYRQAPGKERELVAAITRSGSSTYYADSVKGRFTISRDNAKNTVYLQMNSLKPEDTAVYYCAADVGFGGYSHFDPYEYWGQGTQVTVSS | high polyreactivity
5 | QVQLVESGGGLVQAGGSLRLSCAASGRTFIWNAMGWYRQAPGKERELVADISIRGGSTNYADSVKGRFTISRDNAKNTVYFQMNSLKPEDTAVYYCAAEYYDSGNDYWGQGTQVTVSS | low polyreactivity
6 | QVQLVESGGGLVQAGGSLRLSCAASGRTFIYNAMAWYRQAPWKERELVAGITRSGGSTYYADSVKGRFTISRDNAKNTVYLQMNSLKPEDTAVYYCAAARRTKTFSSYYYWGQGTQVTVSS | high polyreactivity
7 | QVQLVESGGGLVQAGGSLRLSCAASGRTFIYYAMGWYRQAPGKERELVAAISRSGGSTYYADSVKGRFTISRDNAKNTVYLQMNSLKPEDTAVYYCAAADPLGYEYDSWGQGTQVTVSS | high polyreactivity
8 | QVQLVESGGGLVQAGGSLRLSCAASGRTFIYYAMGWYRQAPGKERELVAGISRNGGRTYYADSVKGRFTISRDNAKNTVYLQMNSLKPEDTAVYYCNARTYSYRGYNYWGQGTQVTVSS | high polyreactivity
9 | QVQLVESGGGLVQAGGSLRLSCAASGRTFKDYAMGWYRQAPGKERELVAAISWSGGDTYYADSVKGRFTISRDNAKNTVYLQMNSLKPEDTAVYYCNADPSGVFFYSLEFDYWGQGTQVTVSS | low polyreactivity
10 | QVQLVESGGGLVQAGGSLRLSCAASGRTFKFYAMGWDRQAPGSDRELVAAISSSGGRTYYADSVKGRFTISRDNAKNTVYLQMNSLKPEDTAVYYCAAVPGSKFVQKDDYWGQGTQVTVSS | low polyreactivity
11 | QVQLVESGGGLVQAGGSLRLSCAASGRTFKFYAMGWYRQAPGKERELVAGIGSGGRTYYADSVKGRFTISRYNAKNTVYLHMNSLKPEDTAVYYCAARQYGPRYTYYYWGQGTQVTVSS | high polyreactivity
12 | QVQLVESGGGLVQAGGSLRLSCAASGRTFKGYAMGWYRQAPGKEREFVATITSRGDRTYYADSVKGRFTISRDNAKNTVSLQMNSLKPEDTAVYYCNARYYWKQAADYNYWGQGTQVTVSS | low polyreactivity
13 | QVQLVESGGGLVQAGGSLRLSCAASGRTFKGYAMGWYRQAPGKERELVAAITGSVGSTYYADSVKGRFTISRDNAKNTVYLQMNSLKPEDTAVYYCAKRWKATRARYDYWGLGTQVTVSS | high polyreactivity
14 | QVQLVESGGGLVQAGGSLRLSCAASGRTFKINAMGWYRQAPGKERELVATITGRGASTYYADSVKGRFTISRDNAKNTVYLQMNSLKPEDTAVYYCAARTEVPTRYNYWGQGTQVTVSS | high polyreactivity
15 | QVQLVESGGGLVQAGGSLRLSCAASGRTFKIYAMGWYRQAPGKERELVAAISRGGRTYYADSVKGRFTISRDNAKNTVYLQMNSLKPEDTAVYYCAADLLISPEFYYWGQGTQVTVSS | high polyreactivity
16 | QVQLVESGGGLVQAGGSLRLSCAASGRTFKKYAMGWYRQAPGKERELVAAITGSGGSTYYADSVKGRFTISRDNAKNTVYLQMNILTPEDTAVYYCAAYAYGVWHSQDGGNYWGQCTQVTVSS | low polyreactivity
17 | QVQLVESGGGLVQAGGSLRLSCAASGRTFKKYAMGWYRQAPGKEREVVAAITSRVGSTSYADSVKGRFTISRDNAKNTVYLQMNSLKPEDTAVYYCAARYSVGTGYGYWGQGTQVTVSS | high polyreactivity
18 | QVQLVESGGGLVQAGGSLRLSCAASGRTFKPYAMGWYRQAPGKERELVAAISTRGGSTYYADSVKGRFTISRDNAKNTVYLQMNSLKPEDTAVYYCAATQPGRDYDYWGQGTQVTVSS | low polyreactivity
19 | QVQLVESGGGLVQAGGSLRLSCAASGRTFKSYAMGWYRQAPGKERELVAAISKRGGSTYYADSVKGRFTISRDNAKNTVYLQMNSLKPEDTAVYYCAADARYRSYSLLVRPGRYYYWGQGTQVTVSS | high polyreactivity
20 | QVQLVESGGGLVQAGGSLRLSCAASGRTFKSYAMGWYRQAPGKERELVAAISYSGGSTYYADSVKGRFTISRDNAKNTVYLQMNSLKPEDTAVYYCNVVSKVIRGLSGDGYWGQGTQVTVSS | high polyreactivity
21 | QVQLVESGGGLVQAGGSLRLSCAASGRTFKTYAMGWYRQAPGKERELVAAISRDGRTYYADSVKGRFTISRDNAMNTVYLQMNSLKPEDTAVYYCNKRSYRKGDYWGQGTQVTVSS | low polyreactivity

Row | Sequence | polyreactivity (PSR sort gate)
22 | QVQLVESGGGLVQAGGSLRLSCAASGRTFKVYAMGWYRQAPGKERELVAAISDRGGSTYYADSVKGRFTISRDNAKNSVYLQMNSLKPEDTAVYYCSAEYARSTWRAYPELDYWGQGTQVTVSS | low polyreactivity
23 | QVQLVESGGGLVQAGGSLRLSCAASGRTFKYNTMGWYRQAPGKERELVAVISRSGGRTYYADSVKGRFTISRDNAKNTVYLQMNSLKPEDTAVYYCAKGIPYADPQSAYDDYWGQGTQVTVSS | high polyreactivity
24 | QVQLVESGGGLVQAGGSLRLSCAASGRTFKYYAMGWSRQAPGKERELVATISSGGSTNYADSVKGRFTISRDNAKNTVYLQMNSLKPEDTAVYYCADTIGHNGFDYWGQGTQVTVSS | low polyreactivity
25 | QVQLVESGGGLVQAGGSLRLSCAASGRTFKYYAMGWYRQAPGIEREFVAAITVSGGSTYYADSVKGRFTISRDNAKNPVYLQMNSLKPEDTAVYYCAARYQRYSSKTIQNEDYWGQGTQVTVSS | high polyreactivity
26 | QVQLVESGGGLVQAGGSLRLSCAASGRTFKYYAMGWYRQAPGKERELVAAISRGGSTNYADSVKGRFTISRDNAKNTVYLQVNSLKPEDTPVYYCAKDYVWYDEYDYWGQGTQVTVSS | low polyreactivity
27 | QVQLVESGGGLVQAGGSLRLSCAASGRTFKYYAMGWYRQAPGKERELVATITYSGGSTYYADSVKGRFTISRDNAKNTVYLQMNSLKPEDTAVYYCNKVIFLSQSSYSFHYAYDYWGQGTQVTVSS | high polyreactivity
28 | QVQLVESGGGLVQAGGSLRLSCAASGRTFLEKAMGWYRPAPGKEREFVAANTYSSGSTFYADSVKGRFTISRDNAKNTVYLQMNSLKPEDTAVYYCAARFWYRHARWYDYWGQGTQVTVSS | high polyreactivity
29 | QVQLVESGGGLVQAGGSLRLSCAASGRTFLFNTMGWYRQAPGKERELVAAITRRGGSTYYADSVKGRFTISRDNAKNTVYLQMNSLKPEDTAVYYCNAPAYSPPGYYWGQGTQVTVSS | low polyreactivity
30 | QVQLVESGGGLVQAGGSLRLSCAASGRTFLGYAMGWYRQAPGKERELVAAISGSGDRTYYADSVKGRFTISRDNAKNTVYLQMNSLKPEDTAVYYCNAVTVRYYASYYGRGMDYWGQGTQVTVSS | high polyreactivity
31 | QVQLVESGGGLVQAGGSLRLSCAASGRTFLGYAMGWYRQAPGKERELVAAISSSGGRTYYADSVKGRFTISRDNAKNTVYLQMNSLKPEDTAVYYCNAPRIVLCGYEYWGQGTQVTVSS | high polyreactivity
32 | QVQLVESGGGLVQAGGSLRLSCAASGRTFLIYAMGWYRQAPGKERELVAAINNGGSTYYADSVKGRFTISRDNAKNTVYLQMNSLKPEDTAVYYCAARQIRATRYYYWGQGTQVTVSS | high polyreactivity
33 | QVQLVESGGGLVQAGGSLRLSCAASGRTFLKYTLGWYRQAPGKERELVAAISGSGGSTYYADSVKGRFTISRDNAKNTVYLQMNSLKPEDTAVYYCAAAIVRHYQTGYYWGQGTQVTVSS | high polyreactivity
34 | QVQLVESGGGLVQAGGSLRLSCAASGRTFLLNAMGWYRQAPGKERELVAAITRSGVITYYADSVKGRFTISRDIAKNTVYFQMNSLKPEDTAVFYCAAQLRYSYLRPSYYYWGQGTQVTVSS | high polyreactivity
35 | QVQLVESGGGLVQAGGSLRLSCAASGRTFLNNAMGWYRQAPGKERELVAAITKSGGSTYYADSVKGRFTISRDNAKNTVYLQMNSLKPEDTAVYYCAAARRYYTYYREDYYYWGQGTQVTVSS | high polyreactivity
36 | QVQLVESGGGLVQAGGSLRLSCAASGRTFLNYAMGWYRQAPGKEREFVAAITWRVGTTYYADSVKGRFTISRDNAKNTVYLQMNSLKPEDTAVYYCAARSRTGRYDYWGQGTQVTVSS | high polyreactivity
37 | QVQLVESGGGLVQAGGSLRLSCAASGRTFLPNAMGWYRQAPGKERELVAVITSGGSTNYADSVKGRFTISRDNAKNTVYLQMNSLKQEDTAVYYCAARRWSSSQGHWGKSAGYGYWGQGTQVTVSS | low polyreactivity
38 | QVQLVESGGGLVQAGGSLRLSCAASGRTFLPNDMGWYRQAPGKERELVAAITDSGGDTYYADSVKGRFTISRDNAKNTVYLQMNSLKPEDTAVYYCAADYYYYGSYYPVEYWGQGTQVTVSS | high polyreactivity
39 | QVQLVESGGGLVQAGGSLRLSCAASGRTFLQYAMGWYRQAPGKERELVATISFSGGSTYADSVKGRFTISRDNAKNTVYLQMNSLKPEDTAVYYCNAGIRYFVVGRSSYDYWGQGTQVTVSS | low polyreactivity
40 | QVQLVESGGGLVQAGGSLRLSCAASGRTFLRYAMGWYRQAPGKEREFVAAISYSGSRTYYADSVKGRFTISRDTAKKTVYLQMNSLKPEDTAVYYCATDSDARVELAGYDYWGQGTQVTVSS | high polyreactivity
41 | QVQLVESGGGLVQAGGSLRLSCAASGRTFLRYTMGWYRQAAGKERELVAVITNGGTRTYYADSVKGRFTISRDNAKNTVYLQMNSLKPEYTAVYYCAARVRYTANYDYWGQGTQVTVSS | high polyreactivity
